Substrate in the data set: pcPET (post-consumer)
As to the kind of experiment: Proxy for plastic degradation [Released monomer concentration (HPLC/LC-MS) (TPA+MHET+BHET)]. The conditions noted are these: pH 9.

Numbering of substitutions follows the chain as printed.

B1: unnamed (protein)
chain: MLSFLRSTGRPERRRASLPALLLFTAALVASGLTAAPAAQAADNPYQRGPDPTNASIEAATGPFAVGTQPIVGASGFGGGQIYYPTDTSQTYGAVVIVPGFISVWAQLNWLGPRLASQGFVVIGIETSTITDLPDPRGDQALAALDWATTRSPVASRIDRTRLAAAGWSMGGGGLRRAACQRPSLKAIVGMAPWNGEKNWSCVTVPTLFFGGSSDAVASPNDHAKPFYNSITRAEKDYIELCNADHFFPTSANTTMAKYFISWLKRWVDNDTRYTQFLCPGPSTGLFAPVCASMNTCPF
Consider B1, for which the “Proxy for plastic degradation” value runs as follows: (40 °C, 24 h) 1200 µM; (60 °C, 6 h) 1020 µM.

B2: unnamed (protein)
chain: B1 chain with T129V, C180L, K198R, C202A
In the case of B2, for the setting “40 °C, 24 h”, the “Proxy for plastic degradation” value amounted to 890 µM.

B3: unnamed (protein)
chain: B1 chain with T129V, C180L, K198R, C202A, C242R, C291S
Regarding B3, under “60 °C, 6 h”, the “Proxy for plastic degradation” value was 60 µM.

B4: unnamed (protein)
chain: B1 chain with N109A, T129V, C180L, K198R, C202A, C242R, C291S
Turning to B4, under “40 °C, 24 h”, the “Proxy for plastic degradation” value amounted to 720 µM.

B5: unnamed (protein)
chain: B1 chain with T129V, C180L, C202A, C242R, C291S
In the case of B5, the “Proxy for plastic degradation” value (40 °C, 24 h) is 950 µM.

B6: unnamed (protein)
chain: B1 chain with T86R, T129V, C180L, K198R, C202A, C242R, C291S
In the case of B6, where the note is “40 °C, 24 h”, the “Proxy for plastic degradation” value was determined as 485 µM.

B7: unnamed (protein)
chain: B1 chain with T129V, A155R, K198R
B7: the “Proxy for plastic degradation” value runs as follows: (40 °C, 24 h) 948 µM; (60 °C, 6 h) 360 µM.

B8: unnamed (protein)
chain: B1 chain with T129V, C180L, K198R, C202A, C242R, T275R, C291S
As to B8, the “Proxy for plastic degradation” value (40 °C, 24 h) is 270 µM.

B9: unnamed (protein)
chain: B1 chain with T129V, C180L, A192T, K198R, C202A, C242R, C291S
With B9, the “Proxy for plastic degradation” value (40 °C, 24 h) is 495 µM.

B10: unnamed (protein)
chain: B1 chain with T129V, R157A, C180L, K198R, C202A, C242R, C291S
Turning to B10, the “Proxy for plastic degradation” value (40 °C, 24 h) is 225 µM.

B11: unnamed (protein)
chain: B1 chain with T129V, A155R, C180L, K198R, C202A, C242R, C291S
For B11, under “40 °C, 24 h”, the “Proxy for plastic degradation” value worked out at 870 µM.

The record behind these values is the PETadex activity labels (doi:10.1038/s41467-023-40233-w).
